Test results taken from the supplement of paper PMC10567573.

B1: TMEM106C (parent)
chain: FTGRDSITCLTCQGTGYIPTEQVN
B2: INTS3 (parent)
chain: YPPLEGHVRQGVFSSLNHIVEKRV

Variants of: B1
Assay: protein stability index of a GFP-peptide fusion (GPS, HEK-293T) (PSI 1-6); higher = more stable
Settings: c terminus: a fixed tail appended
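Further: lentivirally expressed fusions sorted by FACS into six bins by GFP to DsRed ratio, PSI derived from sequencing read proportions per bin multiplied by bin number.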

Protein stability index, by site and new letter:
I7: Y 2.68
C9: Y 2.75
V23: G 1.75
G3: P 2.76; N 2.12
E21: Y 2.67; K 1.65
Y17: T 2.16
T11: W 2.97
D5: I 2.65
T2: C 2.63; L 2.61; Y 3.3
G14: A 1.5
G16: M 2.8
R4: G 1.74; Y 1.65; N 2.8
Q13: V 2
P19: R 1.26; M 2.15
C12: A 2.17
I18: R 2.57; V 1.64

Variants of: B2
Assay: as above
Settings: c terminus: a fixed tail appended

Protein stability index, by site and new letter:
G6: H 2.98; V 2.07; A 2.38; R 2.3; F 2.2; T 3.99; N 2.86; M 2.51; E 3.51; K 2.13; P 2.76; Q 2.74; I 1.76; Y 2.38; W 2.65; L 2.06; C 2.39; S 2.73; D 2.81
H7: T 2.56; S 2.97; V 2.37; F 2.42; P 2.01; Y 1.47; A 2.68; N 3.13; Q 2.36; L 2.2; K 2.21; I 2.21; D 2.79; R 2.22; G 2.3
R9: A 3.24
V8: C 2.86; S 3; D 3.25; Y 2.21; M 2.46; H 2.48; P 2.31; T 3; R 2.75; F 2.23; N 2.55; K 2.84; W 1.78; I 2.38; L 2.13; A 2.46; Q 2.85; E 3.53; G 2.19
E5: C 2.08; Q 2.02; F 1.66; W 1.9; P 2.14; A 2.52; I 1.73; D 3.54; S 1.84; M 2.24; T 1.96; Y 1.87; N 2.05; V 1.49; L 2.14; K 2.1; H 2.24; G 3.59
P3: Q 2.87; W 1.49; A 2.43; K 3.04; M 2.67; V 2.65; H 2.9; I 3.38; D 3.11; T 2.4; E 2.86; S 3.19; G 2.9; Y 2.08; F 2.29; L 2.98; N 2.04; C 2.78; R 2.63
P2: L 2.7; F 2.71; G 2.85; C 1.78; Q 2.02; M 2.1; D 3.36; V 1.36; I 1.55; T 1.6; Y 2.6; E 3.54; A 2.18; S 1.97; R 3.48; H 1.82; N 1.82; K 2.49
L4: R 2.32; A 2.7; E 1.08; M 2.45; S 2.58; I 2.74; F 3.06; N 2.19; K 2.64; W 2.91; Q 2.74; H 3.01; G 1.35; D 2.46; T 1.79; C 2.21; Y 1.83; V 3.04
Y1: M 3.59; F 2.88; T 3.94; L 3.53; C 3.94; D 3.85; Q 3.48; N 4.12; H 4.07; P 3.94; E 3.96; R 4.09; S 3.78; A 4.01; G 3.43; K 4.07
